Laboratory results reported in the supplement of paper PMC10567573.
± gives the standard deviation.

Assay: protein stability index of a GFP-peptide fusion (GPS, HEK-293T) (PSI 1-6); higher = more stable
Settings: c terminus: a fixed tail appended
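Further: 24-mer peptide tiles fused after GFP, lentivirally expressed, FACS-sorted into six equal bins by GFP/DsRed ratio, decoded by Illumina sequencing, PSI is the read-weighted mean bin number.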

Row | Sequence | protein stability index (treatment: DMSO) | protein stability index (treatment: MLN4924 1 uM, 8 h)
1 | RSLNEEHSKQYRCLSFQPECSMKL [VDR] | 3.25 ± 0.26 | 3.41 ± 0.31
2 | ERGLKKIRLGIEGYPTYKEKVKKR [BTBD10] | 3.59 ± 0.3 | 3.66 ± 0.33
3 | HHVEREKDHSSSRPSSPRPQKASP [BTBD10] | 5.36 ± 0.28 | 5.54 ± 0.14
4 | LDQLRFPNGVQLSPAEDFVLVAET [APMAP] | 3.09 ± 0.23 | 3.27 ± 0.23
5 | PSLFHLNTLKRENSSPRVMQRKQS [DLC1] | 3.92 ± 0.16 | 4.2 ± 0.15
6 | NHAPLREQGAIPRLVQLLVRAHQD [CTNNB1] | 2.91 ± 0.23 | 2.91 ± 0.19
7 | AQKISKGADPKSVVCAFFKQGQCT [ZC3H15] | 3.32 ± 0.34 | 3.31 ± 0.26
8 | SSSINSPDRASGPEGSLSQTMAGS [FAM104A] | 5 ± 0.16 | 5.04 ± 0.1
9 | GPIPSHMIHRTRKQKYFYKGGLVW [CLK3] | 2.47 ± 0.027 | 2.45 ± 0.24
10 | RWREGTKDSHDPLPSWAELLRPKY [PBXIP1] | 2.5 ± 0.21 | 2.96 ± 0.3
11 | VLLGWTLHYFPFFLMGRVLYFHHY [POMT2] | 2.96 ± 0.29 | 2.91 ± 0.42
12 | SLASQVHAAAVNGDKGALQRLIVG [INVS] | 3.02 ± 0.22 | 3.19 ± 0.29
13 | RSKYDYLMILRRVVNESTVCLMGH [TENT5C] | 3.05 ± 0.86 | 2.52 ± 0.55
14 | SGDDKNSNYFSMDSMEGKRSPYAG [TRIM29] | 4.5 ± 0.25 | 4.61 ± 0.24
15 | GPRFGPRNDKIKHVQNQVDEVIDV [VAMP4] | 4.24 ± 0.49 | 4.63 ± 0.22
16 | KTSLWEEENALWEEERAFWMENNG [CCDC70] | 4 ± 0.12 | 3.94 ± 0.19
17 | DNWDEKKLEEVVNKKHGEAEKKKP [ZC3H15] | 5.48 ± 0.48 | 5.75 ± 0.25
18 | LSRDTVQESYENVDSLESHIPSQE [ZNF263] | 5.26 ± 0.13 | 5.41 ± 0.13
19 | GNSRSAPPTRGPPPSYGGSSRYDD [RBMX] | 4.94 ± 0.34 | 5.05 ± 0.15
20 | ALREVYAHAVLGQHSHVVRYFSAW [WEE1] | 2.36 ± 0.34 | 2.03 ± 0.3
21 | LIPVPMATQIQQLLQDKQFELALQ [VPS39] | 2.31 ± 0.12 | 2.69 ± 0.29
22 | PHHHSFYDFIVTKARGKSGPLFNF [FAM50A] | 2.29 ± 0.29 | 2.22 ± 0.16

Row | Sequence | protein stability index (treatment: DMSO) | protein stability index (treatment: MLN4924 1 uM, 8 h)
23 | HLVEETRIHVLPSLNPDGYEKAYE [CPXM2] | 4.46 ± 0.15 | 4.34 ± 0.046
24 | SDYISEFRFAPNHTKELEDKVIEL [EPB41L3] | 2.83 ± 0.5 | 3.44 ± 0.49
25 | QAIFHAVDQYLALPDVSLGRYAYV [MCOLN1] | 3.16 ± 0.59 | 2.68 ± 0.31
26 | AETAGAIMAFFLCLGLALGAVFSF [SLC29A1] | 3.35 ± 0.66 | 3.03 ± 0.24
27 | DFALHYCLHHVHYLATEYLETHFR [GAN] | 3.08 ± 0.24 | 3.11 ± 0.23
28 | LIALLTWGYIRYSGQYRELGGAID [ATL3] | 3.4 ± 0.13 | 3.52 ± 0.17
29 | KLMKEILDKKVEKVTISNRLVSSP [HSP90AB1] | 2.81 ± 0.25 | 2.84 ± 0.42
30 | RTIYHMFIALLILFILSTLVVDYI [SOAT1] | 2.84 ± 1.7 | 2.17 ± 0.28
31 | IVAVIDSAQLQELVCHVMMGNLVM [INTS3] | 3.25 ± 0.72 | 3.05 ± 0.55
32 | EYAWCLVRSKYNDDIRKGIVLLEE [FIS1] | 2.13 ± 0.43 | 2.03 ± 0.26
33 | PFPAGPLAVAGGPRKTAAPVNALV [ESRRA] | 3.7 ± 0.34 | 3.61 ± 0.31
34 | DAPLHSVGYTTLVGNNHESWGWDL [SPSB1] | 2.9 ± 0.16 | 2.85 ± 0.25
35 | CLFSERDAAGAPRDASDPLAGAAL [SMAD6] | 4 ± 0.46 | 4.33 ± 0.2
36 | ENAELESRIQEWYEFQIPYICPDY [KRT36] | 2.77 ± 0.46 | 2.9 ± 0.44
37 | QSLDQEILLKVKTEIEEELKSLDK [BCL2L13] | 4.51 ± 0.42 | 4.93 ± 0.24
38 | YSCACLASGSVLRLVDAVLGAEIR [HDAC6] | 3 ± 0.68 | 2.89 ± 0.66
39 | SAQYSQQLQAARNEYLLNLVATNA [FCHSD1] | 2.71 ± 0.11 | 2.77 ± 0.18
40 | HRRGLGVDSKPELQRVLEHRRRNQ [FAM107A] | 4.01 ± 0.4 | 4.11 ± 0.31
41 | HKYNTTSTSYSPLASLPLKADTKG [PLAGL1] | 4.23 ± 0.16 | 4.41 ± 0.2
42 | CATDTKNVQFVFDAVTDVIIKNNL [GNAI1] | 2 ± 0.28 | 2.43 ± 0.22
43 | PKPSVLFLHPDLGVGGAERLVLDA [ALG2] | 3.23 ± 0.29 | 3.15 ± 0.23
44 | LSKSRTDYQPTQAGRLMRPSVKYL [RNF180] | 3.19 ± 0.25 | 3.11 ± 0.49

Row | Sequence | protein stability index (treatment: DMSO) | protein stability index (treatment: MLN4924 1 uM, 8 h)
45 | TIMQAVSQIRLNREHKETCEMDWS [TEKT4] | 2.3 ± 0.27 | 2.44 ± 0.21
46 | TELLAERFYYQALSVAPQIGMPFN [SMG5] | 2.21 ± 0.34 | 2.16 ± 0.17
47 | DNSTMGYMMAKKHLEINPDHPIVE [HSP90AB1] | 4.21 ± 0.21 | 4.05 ± 0.28
48 | RSVDVVVSSVFLLTLSIAFICCAQ [PHTF1] | 3.33 ± 0.59 | 3.35 ± 0.6
49 | SFMTWLRSYIKLFQAPCQRCGKFL [MED27] | 2.6 ± 0.31 | 2.48 ± 0.18
50 | QYWPSRGTETHGLVQVTLLDTVEL [PTPRD] | 2.13 ± 0.17 | 2.23 ± 0.49
51 | VLKYFSHYMEENLMDGGDLPSVTD [PLK2] | 2.75 ± 0.52 | 2.67 ± 0.64
52 | IMSRVNAYQQGVGYQMLGNVVTIG [PHTF1] | 2.21 ± 0.48 | 2.31 ± 0.34
53 | EATSHYIIELLASDAGSPSLHKHL [PCDHGC5] | 2.08 ± 0.064 | 2.12 ± 0.11
54 | FKAVLDGLDVLLAQEVRPRRWKLQ [PRAME] | 2.25 ± 0.19 | 2.41 ± 0.35
55 | ELNAIMNKNSTDVKGCSMYVALFP [DCTD] | 2.71 ± 0.26 | 2.35 ± 0.71
56 | KWMLGAEDLTPEDDMPIGRNVLEL [PTPRD] | 3.9 ± 0.12 | 3.92 ± 0.44
57 | PSAELVQTRMAVSLTAAETLALQG [ZNF232] | 3.45 ± 0.35 | 3.23 ± 0.23
58 | IARVADGLPLAASMQEDEQSGRDL [SEC22B] | 5.24 ± 0.22 | 5.33 ± 0.15
59 | MCSTLEHNCAHFCINIPGSYVCRC [MATN2] | 3.18 ± 0.33 | 3.19 ± 0.44
60 | RKIQFNFPYFRSDRDKRDFVSAGA [CLCN6] | 2.67 ± 0.16 | 2.76 ± 0.39
61 | LRLSCMERKKVQIRSMDPSALASD [DCAF4] | 2.99 ± 0.31 | 3.48 ± 0.3
62 | KLQDLIKDVLRYGEEQLKTHKKCK [FCHO1] | 2.42 ± 0.35 | 2.22 ± 0.29
63 | CAGSTALQEPGEPQGPPASPSCPE [PXN] | 5.15 ± 0.27 | 5.48 ± 0.18
64 | KVTISNRLVSSPCCIVTSTYGWTA [HSP90AB1] | 2.84 ± 0.9 | 2.51 ± 0.37
65 | SDYFCAMFTSELSEKGKPYVDIQG [KLHL12] | 2.53 ± 0.14 | 2.91 ± 0.27
